Results: the supplement of paper PMC7125110
± gives the standard error. Variants at the floor of the assay were thinned out.

B1: glmS ribozyme (parent)
chain: AUAAAAGCGCCAGAACUACAGAAAUGUAGUUGACGAGGAGGAGGUUUAUCGAAUUUUCGGCGGAUGCCUCCAAA

Columns and labels:
Settings in all cases: with glucosamine-6-phosphate
[1] = variants of: B1; assay: self-cleavage kobs at 40 uM GlcN6P; higher = faster cleavage; RNA array
Procedure, shortened: (§1)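 In situ transcription by E. coli RNA polymerase produced barcoded ribozyme variants on sequenced MiSeq chips, and a hybridised Cy3 probe tracked them at 37 °C. Glucosamine-6-phosphate was flowed in at 40 μM to 10 mM in HEPES/KCl/Mg(OAc)2 buffer. kcat and KM were taken from weighted Michaelis–Menten fits of kobs values from exponential decay fits.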

[2] = variants of: B1; assay: self-cleavage kobs at 10000 uM GlcN6P; higher = faster cleavage; RNA array
Procedure, shortened: as §1

[3] = variants of: B1; assay: self-cleavage kobs at 160 uM GlcN6P; higher = faster cleavage; RNA array
Procedure, shortened: as §1

[4] = variants of: B1; assay: self-cleavage kobs at 2500 uM GlcN6P; higher = faster cleavage; RNA array
Procedure, shortened: as §1

[5] = variants of: B1; assay: self-cleavage kobs at 640 uM GlcN6P; higher = faster cleavage; RNA array
Procedure, shortened: as §1

G51A U55A C58G
self-cleavage kobs at 40 uM GlcN6P [1]: < 1e-05 s⁻¹ | self-cleavage kobs at 10000 uM GlcN6P [2]: < 1e-05 s⁻¹

A39U G60C
self-cleavage kobs at 40 uM GlcN6P [1]: < 1e-05 s⁻¹ | self-cleavage kobs at 160 uM GlcN6P [3]: < 1e-05 s⁻¹ | self-cleavage kobs at 2500 uM GlcN6P [4]: < 1e-05 s⁻¹ | self-cleavage kobs at 10000 uM GlcN6P [2]: < 1e-05 s⁻¹

C8G
self-cleavage kobs at 40 uM GlcN6P [1]: < 1e-05 s⁻¹ | self-cleavage kobs at 160 uM GlcN6P [3]: < 1e-05 s⁻¹ | self-cleavage kobs at 640 uM GlcN6P [5]: < 1e-05 s⁻¹ | self-cleavage kobs at 2500 uM GlcN6P [4]: < 1e-05 s⁻¹ | self-cleavage kobs at 10000 uM GlcN6P [2]: < 1e-05 s⁻¹

A15G G35A
self-cleavage kobs at 40 uM GlcN6P [1]: < 1e-05 s⁻¹ | self-cleavage kobs at 160 uM GlcN6P [3]: < 1e-05 s⁻¹ | self-cleavage kobs at 10000 uM GlcN6P [2]: < 1e-05 s⁻¹

A15G G43U A53C
self-cleavage kobs at 40 uM GlcN6P [1]: < 1e-05 s⁻¹

G40C
self-cleavage kobs at 40 uM GlcN6P [1]: 0.000161 ± 2.8e-06 s⁻¹ | self-cleavage kobs at 160 uM GlcN6P [3]: 0.000388 ± 1.8e-05 s⁻¹ | self-cleavage kobs at 640 uM GlcN6P [5]: 0.00123 ± 3.8e-05 s⁻¹ | self-cleavage kobs at 2500 uM GlcN6P [4]: 0.00453 ± 0.0002 s⁻¹

C11A C70U C71G
self-cleavage kobs at 40 uM GlcN6P [1]: 4.85e-05 ± 1.9e-05 s⁻¹ | self-cleavage kobs at 10000 uM GlcN6P [2]: 3.22e-05 ± 1.6e-05 s⁻¹

U31C G43C
self-cleavage kobs at 40 uM GlcN6P [1]: < 1e-05 s⁻¹ | self-cleavage kobs at 640 uM GlcN6P [5]: < 1e-05 s⁻¹ | self-cleavage kobs at 2500 uM GlcN6P [4]: < 1e-05 s⁻¹ | self-cleavage kobs at 10000 uM GlcN6P [2]: < 1e-05 s⁻¹

A15C G43U U54C
self-cleavage kobs at 40 uM GlcN6P [1]: < 1e-05 s⁻¹ | self-cleavage kobs at 10000 uM GlcN6P [2]: < 1e-05 s⁻¹

A33U C34A
self-cleavage kobs at 40 uM GlcN6P [1]: < 1e-05 s⁻¹ | self-cleavage kobs at 160 uM GlcN6P [3]: < 1e-05 s⁻¹ | self-cleavage kobs at 640 uM GlcN6P [5]: < 1e-05 s⁻¹ | self-cleavage kobs at 2500 uM GlcN6P [4]: < 1e-05 s⁻¹ | self-cleavage kobs at 10000 uM GlcN6P [2]: < 1e-05 s⁻¹

G63C G66C
self-cleavage kobs at 40 uM GlcN6P [1]: < 1e-05 s⁻¹ | self-cleavage kobs at 160 uM GlcN6P [3]: < 1e-05 s⁻¹ | self-cleavage kobs at 640 uM GlcN6P [5]: < 1e-05 s⁻¹ | self-cleavage kobs at 2500 uM GlcN6P [4]: < 1e-05 s⁻¹ | self-cleavage kobs at 10000 uM GlcN6P [2]: < 1e-05 s⁻¹

G38C A48U
self-cleavage kobs at 40 uM GlcN6P [1]: < 1e-05 s⁻¹ | self-cleavage kobs at 10000 uM GlcN6P [2]: < 1e-05 s⁻¹

A15C C71A
self-cleavage kobs at 40 uM GlcN6P [1]: 3.98e-05 ± 9.4e-06 s⁻¹ | self-cleavage kobs at 160 uM GlcN6P [3]: 8.22e-05 ± 3.4e-05 s⁻¹ | self-cleavage kobs at 640 uM GlcN6P [5]: 0.000136 ± 5.9e-05 s⁻¹ | self-cleavage kobs at 2500 uM GlcN6P [4]: 0.000291 ± 7.5e-05 s⁻¹ | self-cleavage kobs at 10000 uM GlcN6P [2]: 0.00151 ± 0.00019 s⁻¹

A6G G9C G59U
self-cleavage kobs at 40 uM GlcN6P [1]: < 1e-05 s⁻¹ | self-cleavage kobs at 2500 uM GlcN6P [4]: < 1e-05 s⁻¹

U31G A36C C61U
self-cleavage kobs at 40 uM GlcN6P [1]: < 1e-05 s⁻¹ | self-cleavage kobs at 10000 uM GlcN6P [2]: < 1e-05 s⁻¹

G44A G59A
self-cleavage kobs at 40 uM GlcN6P [1]: < 1e-05 s⁻¹ | self-cleavage kobs at 160 uM GlcN6P [3]: < 1e-05 s⁻¹ | self-cleavage kobs at 640 uM GlcN6P [5]: < 1e-05 s⁻¹ | self-cleavage kobs at 10000 uM GlcN6P [2]: < 1e-05 s⁻¹

A42G U69C C71A
self-cleavage kobs at 40 uM GlcN6P [1]: 0.000273 ± 0.00013 s⁻¹ | self-cleavage kobs at 2500 uM GlcN6P [4]: 0.00647 ± 0.0028 s⁻¹

C11A U30C
self-cleavage kobs at 40 uM GlcN6P [1]: < 1e-05 s⁻¹ | self-cleavage kobs at 160 uM GlcN6P [3]: < 1e-05 s⁻¹ | self-cleavage kobs at 2500 uM GlcN6P [4]: 4.93e-05 ± 1.8e-05 s⁻¹

G63A A64U
self-cleavage kobs at 40 uM GlcN6P [1]: < 1e-05 s⁻¹ | self-cleavage kobs at 640 uM GlcN6P [5]: < 1e-05 s⁻¹ | self-cleavage kobs at 2500 uM GlcN6P [4]: < 1e-05 s⁻¹ | self-cleavage kobs at 10000 uM GlcN6P [2]: < 1e-05 s⁻¹

G66A U69A
self-cleavage kobs at 40 uM GlcN6P [1]: 8.7e-05 ± 1.7e-05 s⁻¹ | self-cleavage kobs at 160 uM GlcN6P [3]: 0.000185 ± 3.8e-05 s⁻¹ | self-cleavage kobs at 640 uM GlcN6P [5]: 0.0005 ± 9.3e-05 s⁻¹ | self-cleavage kobs at 2500 uM GlcN6P [4]: 0.000595 ± 0.00011 s⁻¹ | self-cleavage kobs at 10000 uM GlcN6P [2]: 0.00178 ± 0.00037 s⁻¹

G32C U46A
self-cleavage kobs at 40 uM GlcN6P [1]: < 1e-05 s⁻¹ | self-cleavage kobs at 160 uM GlcN6P [3]: < 1e-05 s⁻¹ | self-cleavage kobs at 640 uM GlcN6P [5]: < 1e-05 s⁻¹

C11A C16G A36U G40A U55A U56A
self-cleavage kobs at 40 uM GlcN6P [1]: < 1e-05 s⁻¹ | self-cleavage kobs at 10000 uM GlcN6P [2]: < 1e-05 s⁻¹

G7C C10U U30A U46A
self-cleavage kobs at 40 uM GlcN6P [1]: < 1e-05 s⁻¹

U30A G63C
self-cleavage kobs at 40 uM GlcN6P [1]: < 1e-05 s⁻¹ | self-cleavage kobs at 160 uM GlcN6P [3]: < 1e-05 s⁻¹ | self-cleavage kobs at 2500 uM GlcN6P [4]: < 1e-05 s⁻¹ | self-cleavage kobs at 10000 uM GlcN6P [2]: < 1e-05 s⁻¹

A6U G9A A33G C68U C71G
self-cleavage kobs at 40 uM GlcN6P [1]: 0.000234 ± 0.0001 s⁻¹ | self-cleavage kobs at 10000 uM GlcN6P [2]: 4.24e-05 ± 1.8e-05 s⁻¹

U30A G59A G60C C71A
self-cleavage kobs at 40 uM GlcN6P [1]: < 1e-05 s⁻¹ | self-cleavage kobs at 10000 uM GlcN6P [2]: < 1e-05 s⁻¹

G59C C61U G66U
self-cleavage kobs at 40 uM GlcN6P [1]: < 1e-05 s⁻¹ | self-cleavage kobs at 10000 uM GlcN6P [2]: < 1e-05 s⁻¹

A39U C61A
self-cleavage kobs at 40 uM GlcN6P [1]: < 1e-05 s⁻¹ | self-cleavage kobs at 160 uM GlcN6P [3]: < 1e-05 s⁻¹ | self-cleavage kobs at 640 uM GlcN6P [5]: < 1e-05 s⁻¹ | self-cleavage kobs at 2500 uM GlcN6P [4]: < 1e-05 s⁻¹ | self-cleavage kobs at 10000 uM GlcN6P [2]: < 1e-05 s⁻¹

A48C G62A
self-cleavage kobs at 40 uM GlcN6P [1]: < 1e-05 s⁻¹ | self-cleavage kobs at 160 uM GlcN6P [3]: < 1e-05 s⁻¹ | self-cleavage kobs at 640 uM GlcN6P [5]: < 1e-05 s⁻¹ | self-cleavage kobs at 2500 uM GlcN6P [4]: < 1e-05 s⁻¹ | self-cleavage kobs at 10000 uM GlcN6P [2]: < 1e-05 s⁻¹

A33G G62C
self-cleavage kobs at 40 uM GlcN6P [1]: < 1e-05 s⁻¹ | self-cleavage kobs at 640 uM GlcN6P [5]: < 1e-05 s⁻¹ | self-cleavage kobs at 2500 uM GlcN6P [4]: < 1e-05 s⁻¹ | self-cleavage kobs at 10000 uM GlcN6P [2]: < 1e-05 s⁻¹

G13U G32A G37C A42C
self-cleavage kobs at 40 uM GlcN6P [1]: < 1e-05 s⁻¹ | self-cleavage kobs at 160 uM GlcN6P [3]: < 1e-05 s⁻¹ | self-cleavage kobs at 2500 uM GlcN6P [4]: < 1e-05 s⁻¹ | self-cleavage kobs at 10000 uM GlcN6P [2]: < 1e-05 s⁻¹

A15G U56G
self-cleavage kobs at 40 uM GlcN6P [1]: 0.000419 ± 4.9e-05 s⁻¹ | self-cleavage kobs at 160 uM GlcN6P [3]: 0.000989 ± 0.00014 s⁻¹ | self-cleavage kobs at 640 uM GlcN6P [5]: 0.00325 ± 0.00045 s⁻¹ | self-cleavage kobs at 2500 uM GlcN6P [4]: 0.00559 ± 0.00073 s⁻¹ | self-cleavage kobs at 10000 uM GlcN6P [2]: 0.0296 ± 0.0053 s⁻¹

U49A A52C
self-cleavage kobs at 40 uM GlcN6P [1]: < 1e-05 s⁻¹ | self-cleavage kobs at 160 uM GlcN6P [3]: < 1e-05 s⁻¹ | self-cleavage kobs at 640 uM GlcN6P [5]: < 1e-05 s⁻¹ | self-cleavage kobs at 10000 uM GlcN6P [2]: < 1e-05 s⁻¹

A15C C50G A53G
self-cleavage kobs at 40 uM GlcN6P [1]: 7e-05 ± 2.9e-05 s⁻¹

A33U U65G C71U
self-cleavage kobs at 40 uM GlcN6P [1]: < 1e-05 s⁻¹

A14C U56G
self-cleavage kobs at 40 uM GlcN6P [1]: 0.00282 ± 0.00046 s⁻¹ | self-cleavage kobs at 160 uM GlcN6P [3]: 0.00922 ± 0.003 s⁻¹ | self-cleavage kobs at 640 uM GlcN6P [5]: 0.0201 ± 0.0065 s⁻¹ | self-cleavage kobs at 2500 uM GlcN6P [4]: 0.00838 ± 0.0029 s⁻¹ | self-cleavage kobs at 10000 uM GlcN6P [2]: 0.0693 ± 0.022 s⁻¹

G13A C67A C71A
self-cleavage kobs at 40 uM GlcN6P [1]: < 1e-05 s⁻¹

G35U U45G
self-cleavage kobs at 40 uM GlcN6P [1]: < 1e-05 s⁻¹ | self-cleavage kobs at 160 uM GlcN6P [3]: < 1e-05 s⁻¹ | self-cleavage kobs at 640 uM GlcN6P [5]: < 1e-05 s⁻¹ | self-cleavage kobs at 2500 uM GlcN6P [4]: < 1e-05 s⁻¹ | self-cleavage kobs at 10000 uM GlcN6P [2]: < 1e-05 s⁻¹

G13U G41A U49G U55G
self-cleavage kobs at 40 uM GlcN6P [1]: < 1e-05 s⁻¹ | self-cleavage kobs at 2500 uM GlcN6P [4]: < 1e-05 s⁻¹

G35U G38C
self-cleavage kobs at 40 uM GlcN6P [1]: < 1e-05 s⁻¹ | self-cleavage kobs at 640 uM GlcN6P [5]: < 1e-05 s⁻¹ | self-cleavage kobs at 2500 uM GlcN6P [4]: < 1e-05 s⁻¹ | self-cleavage kobs at 10000 uM GlcN6P [2]: < 1e-05 s⁻¹

A12U U46C G59A
self-cleavage kobs at 40 uM GlcN6P [1]: < 1e-05 s⁻¹ | self-cleavage kobs at 10000 uM GlcN6P [2]: 5.26e-05 ± 1.6e-05 s⁻¹

A6C G7C A42C C71U
self-cleavage kobs at 40 uM GlcN6P [1]: < 1e-05 s⁻¹ | self-cleavage kobs at 10000 uM GlcN6P [2]: < 1e-05 s⁻¹
